Data from patent US20240084003A1 (SIMCERE ZAIMING PHARMACEUTICAL, published 2024).

T1: murine CD22 protein (ACROBiosystems, SI2-M52Ha) (murine, UniProt P35329 22-708)
T1 construct: extracellular domain; also called murine CD22-ECD; murine CD22-ECD-His
T1 sequence (looked up): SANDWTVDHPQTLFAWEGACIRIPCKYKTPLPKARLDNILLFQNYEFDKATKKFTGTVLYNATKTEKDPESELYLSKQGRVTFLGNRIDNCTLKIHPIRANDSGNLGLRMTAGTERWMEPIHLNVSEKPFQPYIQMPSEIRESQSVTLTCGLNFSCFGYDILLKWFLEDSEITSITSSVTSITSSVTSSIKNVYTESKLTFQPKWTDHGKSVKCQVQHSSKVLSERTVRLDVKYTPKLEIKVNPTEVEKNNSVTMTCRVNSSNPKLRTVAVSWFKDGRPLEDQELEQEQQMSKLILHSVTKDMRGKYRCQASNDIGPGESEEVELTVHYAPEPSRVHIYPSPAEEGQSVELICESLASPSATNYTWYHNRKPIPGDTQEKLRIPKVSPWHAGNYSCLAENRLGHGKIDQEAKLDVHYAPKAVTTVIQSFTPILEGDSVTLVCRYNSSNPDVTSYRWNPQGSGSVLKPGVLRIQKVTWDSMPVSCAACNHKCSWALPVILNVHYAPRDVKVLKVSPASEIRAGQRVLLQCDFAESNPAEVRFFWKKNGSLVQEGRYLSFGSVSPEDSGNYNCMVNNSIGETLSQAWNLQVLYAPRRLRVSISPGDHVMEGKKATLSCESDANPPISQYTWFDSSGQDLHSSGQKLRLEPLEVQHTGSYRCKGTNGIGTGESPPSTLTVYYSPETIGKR

T2: human CD22, endogenous on Raji cells (human, UniProt P20273 20-847)
T2 construct: whole, on cells; Endogenous protein of the Raji cell line
T2 sequence (looked up): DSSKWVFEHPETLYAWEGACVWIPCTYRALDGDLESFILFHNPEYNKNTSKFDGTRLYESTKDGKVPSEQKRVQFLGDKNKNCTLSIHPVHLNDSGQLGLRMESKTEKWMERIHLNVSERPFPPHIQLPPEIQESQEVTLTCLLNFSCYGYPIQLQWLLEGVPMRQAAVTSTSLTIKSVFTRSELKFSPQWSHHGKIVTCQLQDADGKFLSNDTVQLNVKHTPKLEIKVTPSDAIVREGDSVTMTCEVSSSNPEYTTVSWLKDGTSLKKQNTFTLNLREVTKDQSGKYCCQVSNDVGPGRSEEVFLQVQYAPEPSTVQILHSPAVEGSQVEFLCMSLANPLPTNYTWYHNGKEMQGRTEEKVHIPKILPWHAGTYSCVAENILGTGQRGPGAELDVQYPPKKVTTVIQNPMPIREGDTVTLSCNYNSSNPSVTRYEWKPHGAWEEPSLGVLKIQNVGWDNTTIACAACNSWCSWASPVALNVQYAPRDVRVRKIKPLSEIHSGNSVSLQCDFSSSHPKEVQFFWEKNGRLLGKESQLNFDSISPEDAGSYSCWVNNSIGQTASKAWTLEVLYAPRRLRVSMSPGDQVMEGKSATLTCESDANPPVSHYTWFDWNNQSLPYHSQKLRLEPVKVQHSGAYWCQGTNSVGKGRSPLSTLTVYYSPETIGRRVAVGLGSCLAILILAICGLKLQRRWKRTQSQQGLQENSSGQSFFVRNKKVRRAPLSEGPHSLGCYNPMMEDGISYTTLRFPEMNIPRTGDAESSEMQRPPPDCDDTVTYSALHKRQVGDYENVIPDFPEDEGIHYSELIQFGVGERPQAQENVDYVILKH

T3: human CD22, full length, on CHO-K1-human CD22 2C4 cells (human, UniProt P20273 20-847)
T3 construct: Full-length human CD22 (NCBI NP_001762.2) stably transfected into CHO-K1
T3 sequence: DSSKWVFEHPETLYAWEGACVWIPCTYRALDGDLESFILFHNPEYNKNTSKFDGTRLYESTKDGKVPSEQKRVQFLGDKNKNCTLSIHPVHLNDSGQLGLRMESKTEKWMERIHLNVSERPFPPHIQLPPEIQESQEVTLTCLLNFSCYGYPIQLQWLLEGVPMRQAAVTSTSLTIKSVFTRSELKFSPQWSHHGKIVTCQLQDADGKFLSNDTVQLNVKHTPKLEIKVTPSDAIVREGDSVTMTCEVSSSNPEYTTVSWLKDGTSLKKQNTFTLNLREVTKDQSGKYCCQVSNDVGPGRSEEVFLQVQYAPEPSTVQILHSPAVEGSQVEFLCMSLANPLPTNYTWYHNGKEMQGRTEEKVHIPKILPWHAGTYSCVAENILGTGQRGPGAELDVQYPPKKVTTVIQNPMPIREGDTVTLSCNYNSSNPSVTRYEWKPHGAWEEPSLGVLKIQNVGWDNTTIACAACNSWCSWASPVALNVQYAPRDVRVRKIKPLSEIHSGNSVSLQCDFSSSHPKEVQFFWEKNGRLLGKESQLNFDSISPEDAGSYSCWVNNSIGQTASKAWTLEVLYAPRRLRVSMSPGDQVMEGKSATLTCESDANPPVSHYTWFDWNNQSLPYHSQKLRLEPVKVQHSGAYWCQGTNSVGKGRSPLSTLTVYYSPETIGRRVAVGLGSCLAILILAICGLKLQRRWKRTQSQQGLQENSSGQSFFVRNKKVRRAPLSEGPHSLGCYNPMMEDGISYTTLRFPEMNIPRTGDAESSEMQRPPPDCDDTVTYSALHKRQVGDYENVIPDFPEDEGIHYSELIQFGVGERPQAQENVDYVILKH


Columns and labels:
[1] = target: T1, murine CD22 protein (ACROBiosystems, …); assay: ELISA, coated murine CD22, 100 nM Ab
Description: (§1) In order to detect the binding activity of CD22 human-murine chimeric antibodies to CD22 protein, the purified human CD22-ECD-His protein obtained in Example 2 was diluted with PBS to a final concentration of 2 μg/mL, and then added to 96-well ELISA plate at 100 μl/well. The plate was sealed with plastic film and incubated overnight at 4° C., the plate was washed 2 times with PBS the next day, and then a blocking solution [PBS+2% (w/w) BSA] was added for blocking at room temperature for 2 hours. […] After incubation at 37° C. for 2 hours, the plate was washed 3 times with PBS. HRP (horseradish peroxidase)-labeled secondary antibody (purchased from Sigma, catalog number: A0170) was added, and incubated at 37° C. for 2 hours, and the plate was washed 5 times with PBS. TMB substrate was added at 50 μl/well, and incubated at room temperature for 30 minutes, then a stop solution (1.0 N HCl) was added at 50 μl/well.
(§2) In order to detect the species cross-binding activity of the chimeric antibodies, an ELISA plate was coated with commercial murine CD22 protein (ACROBiosystems, catalog number: SI2-M52Ha) and monkey CD22 protein (ACROBiosystems, catalog number: SI2-R52Ha), respectively, and the ELISA detection was performed according to the method in Example 5.1.

[2] = target: T1, murine CD22 protein (ACROBiosystems, …); assay: ELISA, coated murine CD22, 0.01 nM Ab
Description: as §1, §2

[3] = target: T2, human CD22, endogenous on Raji cells; assay: FACS, Raji cells
From the text: (§3) The required cells were scale-up cultured in a T-75 cell culture flask to the logarithmic growth phase. For the adherent cell CHO-K1, the medium was aspirated, the cells were washed 2 times with PBS buffer, and then digested with trypsin. After the digestion was terminated, the cells were washed 2 times with PBS buffer. For suspension cell Raji, the medium supernatant was directly centrifuged and discarded, and the cell pellet was washed 2 times with PBS. After counting the cells in the previous step, the cell pellet was resuspended with [PBS+2% (w/w) BSA] blocking solution to 2×10⁶ cells/ml, and added to a 96-well FACS reaction plate at 50 μl/well, and then the chimeric antibody test sample was added at 50 μl/well, and incubated on ice for 2 hours. The mixture was centrifuged and washed 3 times with PBS buffer, Alexa Flour 488-labeled secondary antibody (purchased from Invitrogen, catalog number: A-11013) was added at 50 μl/well, and incubated on ice for 1 hour. The obtained mixture was centrifuged and washed 5 times with PBS, and FACS (FACS Canto™, purchased from BD Company) was used for detection and result analysis. Data analysis was performed by software (CellQuest) to obtain the mean fluorescence density (MFI)of the cells. And then software (GraphPad Prism8) was used for analysis, data fitting, and EC50 value calculation. […] The same method was used to detect the binding of the chimeric antibodies to endogenous CD22-negative cell MoLT4 cells (purchased from ATCC, CRL-1582) and CHO-K1 cells.

[4] = target: T1, murine CD22 protein (ACROBiosystems, …); assay: ELISA, coated murine CD22, 0.1 nM Ab
Description: as §1, §2

[5] = target: T1, murine CD22 protein (ACROBiosystems, …); assay: ELISA, coated murine CD22, 0.001 nM Ab
Description: as §1, §2

[6] = target: T1, murine CD22 protein (ACROBiosystems, …); assay: ELISA, coated murine CD22, 0.0001 nM Ab
Description: as §1, §2

[7] = target: T1, murine CD22 protein (ACROBiosystems, …); assay: ELISA, coated murine CD22, 0.00001 nM Ab
Description: as §1, §2

[8] = target: T3, human CD22, full length, on …; assay: FACS, CHO-K1-human CD22 2C4 cells
From the text: as §3

[9] = target: T1, murine CD22 protein (ACROBiosystems, …); assay: ELISA, coated murine CD22, 10 nM Ab
Description: as §1, §2

Binder	OD450 [1] [OD450]	OD450 [2] [OD450]	EC50 [3] [nM]	Maximum mean fluorescence intensity [3] [MFI]	OD450 [4] [OD450]	OD450 [5] [OD450]	OD450 [6] [OD450]	OD450 [7] [OD450]	EC50 [8] [nM]	Maximum mean fluorescence intensity [8] [MFI]	OD450 [9] [OD450]
F1.7.6 human-murine chimeric antibody (antibody, human IgG1, kappa, V domains shown, Chimeric, human IgG1 / kappa; VL tied by name) VH: EIQLQQSGPELVKPGTSVKVSCKASGYDFTRYNMYWVKQSHGKSLEWIGYIDPYNGDTRYNQKFKGKATLTVDKSSSTAYMHLNSLTSEDSAVYYCEAIYYDMEGYALDYWGQGTSVTVSS VL: DIVMSQSPSSLAVSVGEKVTMSCKSSQSLLYSNNQKNYLAWYQQKPGQSPKKLIYWASTRESGVPDRLTGSGSGTDFTLTISSVTAEDLAVYYCQQFYSYPWTFGGGTKLEIKR	0.07	0.06	0.23	25900	0.06	0.06	0.06	0.06	0.63	29700	0.06
F1.224.1 human-murine chimeric antibody (antibody, human IgG1, kappa, V domains shown, Chimeric, human IgG1 / kappa; VL tied by name) VH: EVLLHQSGPELVKPGASVKISCKASGYTFTDFNMDWVRQRHGQSLEWIGDVNPNNGGTIYNQKFKGKATLTVDKSSSTVYMDLRSLTSDDTAVYYCVRLGTSDYGEAWFISWGQGTVVTVSA VL: DIVLTQSPASLAVSLGQRATISCRASQSVSTPRYSFMHWYQQKPGQPPKLLIKYASNLESGFPARFTGSGSGTDFTLNIHPVEEEDTAAYYCQQSWAIPWTFGGGTKLEIKR	0.07	0.06	0.65	23600	0.05	0.05	0.05	0.06	0.99	30400	0.1
F1.231.15 human-murine chimeric antibody (antibody, human IgG1, V domains shown, Chimeric: murine V regions on human IgG1 heavy constant region and kappa light constant region) VH: QVQLQQPGAELVKPGASVKLSCKTSGYTFTIYWMQWVKQRPGRGLEWIGRIDPHSGDTHYNENFTTKVTLTVDETSNTAYMHLSGLTSEDSAVYYCARRDYSYYVLDYWGQGTSVTVSS VL: DVVLTQTPLSLPVSLGDQASISCRSSQSLVHINGDTYLHWYLQKPGQSPKLLIYTVFNRFSGVPDRFSGSGSGTDFTLKISRVEAEDLGAYFCSQSTHVPYTFGGGTKLEIKR	0.06	0.05	0.45	28800	0.05	0.05	0.05	0.06	1.18	35400	0.06
F1.105.11 human-murine chimeric antibody (antibody, human IgG1, kappa, V domains shown, Chimeric, human IgG1 / kappa; VL tied by name) VH: EVQLQQSGPVLVKPGASVKMSCKASGYTFSDYFMNWVKQSHGKSLEWIGIINSYSGGTSYNQKFKGKATLTVDKSSSTAYMELNSLTSEDSAVYYCARWMDYWGQGTSVTVSS VL: DVQITQSPSYLAASPGETITINCRTSESISKHLAWYQEKPGKTNKLLIYSGSTLQSGIPSRFSGSGSGTDFTLTISSLEPEDFAMYYCQQHNEYPWTFGGGTKLEIKR	0.08	0.05	1.39	24400	0.05	0.05	0.05	0.05	2.53	28300	0.05

Second part, the binder after the results:

OD450 [1] [OD450]	OD450 [2] [OD450]	EC50 [3] [nM]	Maximum mean fluorescence intensity [3] [MFI]	OD450 [4] [OD450]	OD450 [5] [OD450]	OD450 [6] [OD450]	OD450 [7] [OD450]	EC50 [8] [nM]	Maximum mean fluorescence intensity [8] [MFI]	OD450 [9] [OD450]	Binder
0.11	0.07	–	–	0.07	0.06	0.07	0.07	–	–	0.08	m971-hIgG1 (antibody, V domains shown, Positive control anti-human CD22 antibody; V regions from US 8,591,889 B on human IgG1 constant regions) VH: QVQLQQSGPGLVKPSQTLSLTCAISGDSVSSNSAAWNWIRQSPSRGLEWLGRTYYRSKWYNDYAVSVKSRITINPDTSKNQFSLQLNSVTPEDTAVYYCAREVTGDLEDAFDIWGQGTMVTVSS VL: DIQMTQSPSSLSASVGDRVTITCRASQTIWSYLNWYQQRPGKAPNLLIYAASSLQSGVPSRFSGRGSGTDFTLTISSLQAEDFATYYCQQSYSIPQTFGQGTKLEIKR
0.07	0.06	1.66	26700	0.06	0.07	0.07	0.07	2.08	31200	0.08	F1.267.9 human-murine chimeric antibody (antibody, human IgG1, kappa, V domains shown, Chimeric, human IgG1 / kappa; VL tied by name) VH: EVQLQQSGPVLVKPGASVKMSCKASGYTFTDFYMNWAKQSHGKSLEWVGVINPYNGGINYNQKFKGKATLTVDKSSSTAYMEFNSLTSEDSAVYYCARRMEYHAMDYWGQGTSVTVSS VL: DIVLTQSPASLAVSLGQRATISCRASESVDNYGFDFIHWYQQKPGQPPKLLIYRASNLESGIPARFSGSGSRPDFTLTINPVETDDVATYYCQQSIKDPWTFGGGTKLEIKR
